We go through eight molecules from paper PMC7192611, “A transient α-helix in the N-terminal RNA recognition motif of polypyrimidine tract binding protein senses RNA secondary structure”.

In one data set the target is PTB RRM1 K94A (human, UniProt P26599-1 41-163, K94A). Briefly: ITC; Kd1; almost 7-fold; ITC (30 C) and NMR (40 C): 20 mM NaCl, 10 mM NaH2PO4 pH 6.5. EMSA: 20 mM NaH2PO4 pH 7.2, 100 mM NaCl, 5 mM MgCl2, 5% glycerol, 1 mM DTT, 50 ug/ml yeast tRNA, 40 ug/ml BSA, room temperature. The note with it: protein: recombinant; tags: intein tag removed; label: 13C/15N in some NMR samples; hairpin, 5-nt loop UCUUU (positions 10-14).
Sequence of PTB RRM1 K94A (P26599 41-163 K94A): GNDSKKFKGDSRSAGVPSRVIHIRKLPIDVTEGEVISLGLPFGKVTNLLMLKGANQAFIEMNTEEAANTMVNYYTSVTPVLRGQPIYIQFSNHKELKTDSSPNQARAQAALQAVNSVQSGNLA

In the next data set the target is PTB RRM1 L151G (human, UniProt P26599-1 41-163, L151G). Briefly: NMR; alpha3 does not fold; ITC (30 C) and NMR (40 C): 20 mM NaCl, 10 mM NaH2PO4 pH 6.5. EMSA: 20 mM NaH2PO4 pH 7.2, 100 mM NaCl, 5 mM MgCl2, 5% glycerol, 1 mM DTT, 50 ug/ml yeast tRNA, 40 ug/ml BSA, room temperature. The note with it: protein: recombinant; tags: intein tag removed; label: 13C/15N in some NMR samples; hairpin, 5-nt loop UCUUU (positions 10-14). On the technique in general: In EMSA bound probe runs differently from free probe, usually more slowly.
Sequence of PTB RRM1 L151G (P26599 41-163 L151G): as the sequence (P26599 41-163 K94A) above, with A54K, L111G counted along it

In data set [1] the target is T1, PTB RRM1 WT (human, UniProt P26599-1 41-163). Briefly: ITC; Kd1, two independent site model, 30 C; ITC (30 C) and NMR (40 C): 20 mM NaCl, 10 mM NaH2PO4 pH 6.5. EMSA: 20 mM NaH2PO4 pH 7.2, 100 mM NaCl, 5 mM MgCl2, 5% glycerol, 1 mM DTT, 50 ug/ml yeast tRNA, 40 ug/ml BSA, room temperature. The note with it: protein: recombinant; label: 13C/15N in some NMR samples; hairpin, 5-nt loop UCUUU (positions 10-14).
T1 sequence (P26599 41-163): as the sequence (P26599 41-163 K94A) above, with A54K counted along it

Another data set concerns the target PTB RRM1 N143G/R146G (human, UniProt P26599-1 41-163, N143G;R146G). Briefly: ITC; Kd1; up to 3-fold; ITC (30 C) and NMR (40 C): 20 mM NaCl, 10 mM NaH2PO4 pH 6.5. EMSA: 20 mM NaH2PO4 pH 7.2, 100 mM NaCl, 5 mM MgCl2, 5% glycerol, 1 mM DTT, 50 ug/ml yeast tRNA, 40 ug/ml BSA, room temperature. The settings on record: protein: recombinant; tags: intein tag removed; label: 13C/15N in some NMR samples; hairpin, 5-nt loop UCUUU (positions 10-14). On the technique in general: Isothermal titration calorimetry measures the heat released or taken up as one component is titrated into another.

The next data set concerns the target PTB RRM1 P142G (human, UniProt P26599-1 41-163, P142G). Briefly: NMR; alpha3 helicity increases on binding; ITC (30 C) and NMR (40 C): 20 mM NaCl, 10 mM NaH2PO4 pH 6.5. EMSA: 20 mM NaH2PO4 pH 7.2, 100 mM NaCl, 5 mM MgCl2, 5% glycerol, 1 mM DTT, 50 ug/ml yeast tRNA, 40 ug/ml BSA, room temperature. The note with it: protein: recombinant; tags: intein tag removed; label: 13C/15N in some NMR samples; hairpin, 5-nt loop UCUUU (positions 10-14).

Data set [2] deals with T1, PTB RRM1 WT. Put plainly: NMR; docked alpha3 79%; ITC (30 C) and NMR (40 C): 20 mM NaCl, 10 mM NaH2PO4 pH 6.5. EMSA: 20 mM NaH2PO4 pH 7.2, 100 mM NaCl, 5 mM MgCl2, 5% glycerol, 1 mM DTT, 50 ug/ml yeast tRNA, 40 ug/ml BSA, room temperature. The settings on record: protein: recombinant; hairpin, loop GCUUU.
The target of data set [3] is T1, PTB RRM1 WT. Briefly: NMR; alpha3 formed as with SL UCUUU; ITC (30 C) and NMR (40 C): 20 mM NaCl, 10 mM NaH2PO4 pH 6.5. EMSA: 20 mM NaH2PO4 pH 7.2, 100 mM NaCl, 5 mM MgCl2, 5% glycerol, 1 mM DTT, 50 ug/ml yeast tRNA, 40 ug/ml BSA, room temperature. The note with it: protein: recombinant; hairpin, 9-nt loop with UUCUU at its 5' end.
In data set [4] the target is T1, PTB RRM1 WT. Briefly: NMR; docked alpha3 55%; ITC (30 C) and NMR (40 C): 20 mM NaCl, 10 mM NaH2PO4 pH 6.5. EMSA: 20 mM NaH2PO4 pH 7.2, 100 mM NaCl, 5 mM MgCl2, 5% glycerol, 1 mM DTT, 50 ug/ml yeast tRNA, 40 ug/ml BSA, room temperature. The settings on record: protein: recombinant; hairpin, loop UCGUU.
In data set [5] the target is T1, PTB RRM1 WT. Put plainly: NMR; 45 C; modest shift changes; ITC (30 C) and NMR (40 C): 20 mM NaCl, 10 mM NaH2PO4 pH 6.5. EMSA: 20 mM NaH2PO4 pH 7.2, 100 mM NaCl, 5 mM MgCl2, 5% glycerol, 1 mM DTT, 50 ug/ml yeast tRNA, 40 ug/ml BSA, room temperature. The note with it: protein: recombinant; single strand.
The target of data set [6] is T1, PTB RRM1 WT. Put plainly: NMR; docked alpha3 66%; ITC (30 C) and NMR (40 C): 20 mM NaCl, 10 mM NaH2PO4 pH 6.5. EMSA: 20 mM NaH2PO4 pH 7.2, 100 mM NaCl, 5 mM MgCl2, 5% glycerol, 1 mM DTT, 50 ug/ml yeast tRNA, 40 ug/ml BSA, room temperature. The settings on record: protein: recombinant; hairpin, loop UCUGU.
Data set [7] has as its target T1, PTB RRM1 WT. Put plainly: NMR; docked alpha3 78%; ITC (30 C) and NMR (40 C): 20 mM NaCl, 10 mM NaH2PO4 pH 6.5. EMSA: 20 mM NaH2PO4 pH 7.2, 100 mM NaCl, 5 mM MgCl2, 5% glycerol, 1 mM DTT, 50 ug/ml yeast tRNA, 40 ug/ml BSA, room temperature. The settings on record: protein: recombinant; hairpin, loop UCUU.
Data set [8] addresses T1, PTB RRM1 WT. Briefly: NMR; docked alpha3 49%; ITC (30 C) and NMR (40 C): 20 mM NaCl, 10 mM NaH2PO4 pH 6.5. EMSA: 20 mM NaH2PO4 pH 7.2, 100 mM NaCl, 5 mM MgCl2, 5% glycerol, 1 mM DTT, 50 ug/ml yeast tRNA, 40 ug/ml BSA, room temperature. The note with it: protein: recombinant; hairpin, UUCG tetraloop.

Sequence of PTB RRM1 N143G/R146G (P26599 41-163 N143G/R146G): as the sequence (P26599 41-163 K94A) above, with A54K, N103G, R106G counted along it
Sequence of PTB RRM1 P142G (P26599 41-163 P142G): as the sequence (P26599 41-163 K94A) above, with A54K, P102G counted along it

As to GGGACCUGGUCUUUCCAGGUCCC (structured_RNA) [SL UCUUU], the binding signal in the data set with PTB RRM1 K94A was ~7 fold loss of affinity vs WT; with PTB RRM1 N143G/R146G, ~3 fold loss of affinity vs WT. The binding result with PTB RRM1 L151G and in the data set with PTB RRM1 P142G was “binds” each time. Besides, the Kd (commonly the constant that tells how readily two partners part at equilibrium) in the data set with PTB RRM1 WT [1] is 100 ± 20 nM.

For GGGACCUGGGCUUUCCAGGUCCC (structured_RNA) [SL GCUUU], in the data set with PTB RRM1 WT [2], the binding result is reported as “binds”.

Turning to GAUGGAUUCUUAUGCUCCAUC (structured_RNA) [hsa-mir-136 stem-loop], the binding result in the data set with PTB RRM1 WT [3] is on record as “binds”.

In the case of GGGACCUGGUCGUUCCAGGUCCC (structured_RNA) [SL UCGUU], the binding result with PTB RRM1 WT [4] is on record as “binds”.

As for CUCUCU (ssRNA) [CUCUCU ssRNA], the binding result with PTB RRM1 WT [5] is recorded as “binds”.

For the molecule GGGACCUGGUCUGUCCAGGUCCC (structured_RNA) [SL UCUGU], the binding result in the data set with PTB RRM1 WT [6] was “binds”.

With GGGACCUGGUCUUCCAGGUCCC (structured_RNA) [SL UCUU_], in the data set with PTB RRM1 WT [7], the binding result is reported as “binds”.

Turning to GGGACCUGGUUCGCCAGGUCCC (structured_RNA) [SL UUCG], the binding result in the data set with PTB RRM1 WT [8] is “binds”.
